Test results taken from paper PMC5395944.

Molecular target: PglK-E510Q (C. jejuni) (UniProt Q0P9C4)
Experiment: crystal structure

## PglK-E510Q (from UniProt Q0P9C4) (natural protein)
  stoichiometry N: 2
